The values below come from US20230192839A1, “ANTIBODIES HAVING CONDITIONAL AFFINITY AND METHODS OF USE THEREOF” (PFIZER INC., priority 2017, published 2023).

The test system of the experiment is human CD33. As to the kind of experiment: Biacore SPR binding kinetics of anti-CD33 scFv-Fc clones with or without 10 µM MTX. The conditions noted are these: for koff, kinetics toward antigen with 0 µM MTX / kon, kinetics toward antigen with 0 µM MTX / koff, kinetics toward antigen with 10 µM MTX / kon, kinetics toward antigen with 10 µM MTX / Kd: 37° C., pH 7.4; for koff, kinetics toward antigen with 0 µM MTX / kon, kinetics toward antigen with 0 µM MTX / koff, kinetics toward antigen with 10 µM MTX / kon, kinetics toward antigen with 10 µM MTX: scFv-Fc; for koff, kinetics toward antigen with 10 µM MTX / kon, kinetics toward antigen with 10 µM MTX / Kd: 10 µM MTX; for Kd: koff/kon, or estimated from binding response / limit of detection for weak interactions, read-out: KD, kinetics toward antigen with 10 µM MTX. From the text:
The first 4 rounds of panning used biotinylated CD33 antigen captured on streptavidin or neutravidin coated 96-well plates. […] 1536 clones were randomly chosen from the 4th and 5th round of panning against the CD33 antigen and their binding specificity determined by phage ELISA. Clones that specifically bound to CD33 were sequenced and all unique clones were subjected to a phage competition ELISA to assess their relative affinities to CD33 and sensitivity to MTX by measuring their binding strengths in the presence or absence of 10 µM (micromolar) MTX (i.e. in 0 or 10 µM MTX).
All binding kinetics analysis was performed on label-free Biacore surface plasmon biosensors (Biacore T200™ from GE Life Sciences) at 37° C. in 10 mM Hepes pH 7.4, 150 mM NaCl, 0.05% Tween-20 (HBST+), with or without 10 µM MTX. The Biacore data were processed in Biacore T200 Evaluation Software, and the data were double-referenced (Myszka, 1999, J Mol Recognit 12(5):279-284) and fit globally to a simple Langmuir with mass transport model to determine the equilibrium dissociation constant, KD, from the ratio of the kinetic rate constants (KD = koff/kon). In some cases the binding of antigen was very low (or not detectable) in the presence of 10 µM MTX and as a result kinetic rate constants could not be accurately determined. In these cases, a KD (or KD limit) was estimated based on the binding response at the highest analyte concentration tested or based on the typical limit of detection for a Biacore T200.

B1: P01_B02: anti-CD33 clone with increased affinity in presence of MTX; VH SEQ ID NO: 31, VL SEQ ID NO: 32 (antibody, V domains shown)
VH: QVQLVESGGGLVQAGGSLRLSCAASRRSSRSWAMHWVRQAPGKGLEWVAVISYDGRLKYYADSVKGRFTISRDNAEYLVYLQMNSLRAEDTAVYYCAAADWYSGGGDALDIWGQGTLVTVSS
VL: DIQMTQSPSSLSASVGDRVTITCRASQTIYNYLNWYQQKPGKAPKLLIYGASNLQSGVPSRFSGSGSGTDFTLTISSLQPEDFATYYCQQTYSSPTFGQGTKVEIK
modifications: Synthetic Antibody
As to B1, where the note is “10 µM MTX vs 0 µM MTX”, the “affinity for CD33 in the presence of MTX as compared to absence (in words)” value is “increased affinity for CD33 in the presence of 10 µM MTX”. For the same molecule, where the note is “CD33”, the “times greater affinity for CD33 in the presence of 10 µM MTX as compared to in 0 µM MTX” value was “about 10 times”; the “koff, kinetics toward antigen with 0 µM MTX” value (“koff … with 0 µM MTX” for short) is 0.0026 s⁻¹; the “kon, kinetics toward antigen with 0 µM MTX” value (shortened to “kon … with 0 µM MTX”) was 140000 M⁻¹ s⁻¹; the “koff, kinetics toward antigen with 10 µM MTX” value (shortened to “koff … with 10 µM MTX”) came to 0.0006 s⁻¹. The “kon, kinetics toward antigen with 10 µM MTX” value (“kon … with 10 µM MTX” for short) (CD33) worked out at 390000 M⁻¹ s⁻¹.

B2: P08_C08: anti-CD33 clone with conditional affinity; VH SEQ ID NO: 27, VL SEQ ID NO: 28 (antibody, V domains shown)
VH: QVQLVESGGGLVQAGGSLRLSCAASRRSSRSWAMHWVRQAPGKGLEWVAVISYDGRLKYYADSVKGRFTISRDNAEYLVYLQMNSLRAEDTAVYYCAAEGSGSTDGSGAIDVWGQGTLVTVSS
VL: DIQMTQSPSSLSASVGDRVTITCRASQSIGSYLNWYQQKPGKAPKLLIYAASSLQSGVPSRFSGSGSGTDFTLTISSLQPEDFATYYCQQSYSSGSFGQGTKVEIK
modifications: Synthetic Antibody
With B2, for the setting “CD33”, the “koff … with 0 µM MTX” value worked out at 0.0045 s⁻¹; the “kon … with 0 µM MTX” value was found to be 63000 M⁻¹ s⁻¹; the “koff … with 10 µM MTX” value stood at 0.051 s⁻¹; the “kon … with 10 µM MTX” value is 94000 M⁻¹ s⁻¹.

B3: P04_C09: anti-CD33 clone with conditional affinity; VH SEQ ID NO: 23, VL SEQ ID NO: 24 (antibody, V domains shown)
VH: QVQLVESGGGLVQAGGSLRLSCAASRRSSRSWAMHWVRQAPGKGLEWVAVISYDGRLKYYADSVKGRFTISRDNAEYLVYLQMNSLRAEDTAVYYCAAEANESDSGGIDVWGQGTLVTVSS
VL: DIQMTQSPSSLSASVGDRVTITCRASQTIGGYLNWYQQKPGKAPKLLIYAASSLQSGVPSRFSGSGSGTDFTLTISSLQPEDFATYYCQQGYSSGAFGQGTKVEIK
modifications: Synthetic Antibody
Consider B3, for which, under “CD33”, the “koff … with 0 µM MTX” value amounted to 0.0018 s⁻¹; the “kon … with 0 µM MTX” value amounted to 160000 M⁻¹ s⁻¹; the “koff … with 10 µM MTX” value is 0.0089 s⁻¹; the “kon … with 10 µM MTX” value is 44000 M⁻¹ s⁻¹.

B4: P02_C02: anti-CD33 reference clone, less than 2-fold MTX effect; VH SEQ ID NO: 11, VL SEQ ID NO: 12 (antibody, V domains shown)
VH: QVQLVESGGGLVQAGGSLRLSCAASRRSSRSWAMHWVRQAPGKGLEWVAVISYDGRLKYYADSVKGRFTISRDNAEYLVYLQMNSLRAEDTAVYYCAAEGGMGLDPWGQGTLVTVSS
VL: DIQMTQSPSSLSASVGDRVTITCRASQTISSYLNWYQQKPGKAPKLLIYAASNLHSGVPSRFSGSGSGTDFTLTISSLQPEDFATYYCQQSYSSGTFGQGTKVEIK
modifications: Synthetic Antibody
Consider B4, for which, where the note is “CD33”, the “koff … with 0 µM MTX” value is 0.02 s⁻¹; the “kon … with 0 µM MTX” value came to 92000 M⁻¹ s⁻¹; the “koff … with 10 µM MTX” value was 0.025 s⁻¹; the “kon … with 10 µM MTX” value was found to be 110000 M⁻¹ s⁻¹.

B5: P16_E06: anti-CD33 clone with conditional affinity; VH SEQ ID NO: 29, VL SEQ ID NO: 30 (antibody, V domains shown)
VH: QVQLVESGGGLVQAGGSLRLSCAASRRSSRSWAMHWVRQAPGKGLEWVAVISYDGRLKYYADSVKGRFTISRDNAEYLVYLQMNSLRAEDTAVYYCAAEGGDYPGTSDGGLDIWGQGTLVTVSS
VL: DIQMTQSPSSLSASVGDRVTITCRASQSISNYLNWYQQKPGKAPKLLIYGASSLQSGVPSRFSGSGSGTDFTLTISSLQPEDFATYYCQQSYSAGTFGQGTKVEIK
modifications: Synthetic Antibody
B5: where the note is “CD33”, the “koff … with 0 µM MTX” value was found to be 0.011 s⁻¹; the “kon … with 0 µM MTX” value turned out to be 120000 M⁻¹ s⁻¹; the “koff … with 10 µM MTX” value was 0.087 s⁻¹; the “kon … with 10 µM MTX” value stood at 75000 M⁻¹ s⁻¹.

B6: P02_E08: anti-CD33 clone with conditional affinity; VH SEQ ID NO: 37, VL SEQ ID NO: 38; also as scFv in CAR (antibody, V domains shown)
VH: QVQLVESGGGLVQAGGSLRLSCAASRRSSRSWAMHWVRQAPGKGLEWVAVISYDGRLKYYADSVKGRFTISRDNAEYLVYLQMNSLRAEDTAVYYCAASDYDGGGLFDLWGQGTLVTVSS
VL: QSVLTQPPSASGTPGQRVTISCSGSNSNIGDNYVHWYQQLPGTAPKLLIYMNNQRPSGVPDRFSGSKSGTSASLAISGLRSEDEADYYCATWDDSLSGVVFGTGTKLTVL
modifications: Synthetic Antibody
notes: also as scFv in CAR
B6: under “CD33”, the “koff … with 0 µM MTX” value stood at 0.01 s⁻¹; the “kon … with 0 µM MTX” value is 47000 M⁻¹ s⁻¹; the Kd (in general, the free concentration of one partner at which half of the binding sites on the other are occupied at equilibrium, for simple one-to-one binding) was greater than 0.726 µM.

B7: P03_H04: anti-CD33 clone with conditional affinity; VH SEQ ID NO: 39, VL SEQ ID NO: 40; also as scFv in CAR (antibody, V domains shown)
VH: QVQLVESGGGLVQAGGSLRLSCAASRRSSRSWAMHWVRQAPGKGLEWVAVISYDGRLKYYADSVKGRFTISRDNAEYLVYLQMNSLRAEDTAVYYCAADPHDGYGGGPGFDYWGQGTLVTVSS
VL: QSVLTQPPSASGTPGQRVTISCSGSSSNIGSNYVYWYQQLPGTAPKLLIYRSNQRPSGVPDRFSGSKSGTSASLAISGLRSEDEADYYCAAWDDTLSAVVFGTGTKLTVL
modifications: Synthetic Antibody
notes: also as scFv in CAR
With B7, where the note is “CD33”, the “koff … with 0 µM MTX” value was determined as 0.026 s⁻¹; the “kon … with 0 µM MTX” value turned out to be 72000 M⁻¹ s⁻¹; the dissociation constant (Kd) is greater than 15.7 µM.

B8: P04_C05: anti-CD33 clone with conditional affinity; VH SEQ ID NO: 41, VL SEQ ID NO: 42 (antibody, V domains shown)
VH: QVQLVESGGGLVQAGGSLRLSCAASRRSSRSWAMHWVRQAPGKGLEWVAVISYDGRLKYYADSVKGRFTISRDNAEYLVYLQMNSLRAEDTAVYYCAAGLPWTDYWGQGTLVTVSS
VL: QSVLTQPPSASGTPGQRVTISCSGSNSNIGSNYVSWYQQLPGTAPKLLIYSNNQRPSGVPDRFSGSKSGTSASLAISGLRSEDEADYYCAAWDDRLSVVFGTGTKLTVL
modifications: Synthetic Antibody
In the case of B8, where the note is “CD33”, the “koff … with 0 µM MTX” value was 0.0021 s⁻¹; the “kon … with 0 µM MTX” value stood at 83000 M⁻¹ s⁻¹; the “koff … with 10 µM MTX” value is 0.013 s⁻¹; the “kon … with 10 µM MTX” value is 45000 M⁻¹ s⁻¹.
